B1: ATTA 3-4 sites probe (dsDNA)
DNA 1: GGTGGTATTAAATTCTAATTAGAGATGCA
DNA 2: TGCATCTCTAATTAGAATTTAATACCACC
B2: PHOX2A promoter homeodomain binding site probe (dsDNA)
DNA 1: TCAGAGCGAATTGAATTAACTTCTTCACAC
DNA 2: GTGTGAAGAAGTTAATTCAATTCGCTCTGA
B3: PRS1 (dsDNA)
DNA 1: ATGTGTCATTAGTGCCAATTAGAGG
DNA 2: CCTCTAATTGGCACTAATGACACAT
B4: ATTA 2 site probe (dsDNA)
DNA 1: TAGTGTGATTGAATTAAAGGGCA
DNA 2: TGCCCTTTAATTCAATCACACTA

Target: PHOX2B WT (HA-tagged) (human, UniProt Q99453 1-314)
Experiment: EMSA; self-competition and anti-HA supershift; EMSA as previously described (refs 25, 28) with rabbit reticulocyte lysate proteins; buffer, salt, pH and temperature not given
Conditions: protein: ivt; tags: N-terminal HA; label: radiolabeled

Chain of PHOX2B WT (HA-tagged) (Q99453 whole entry): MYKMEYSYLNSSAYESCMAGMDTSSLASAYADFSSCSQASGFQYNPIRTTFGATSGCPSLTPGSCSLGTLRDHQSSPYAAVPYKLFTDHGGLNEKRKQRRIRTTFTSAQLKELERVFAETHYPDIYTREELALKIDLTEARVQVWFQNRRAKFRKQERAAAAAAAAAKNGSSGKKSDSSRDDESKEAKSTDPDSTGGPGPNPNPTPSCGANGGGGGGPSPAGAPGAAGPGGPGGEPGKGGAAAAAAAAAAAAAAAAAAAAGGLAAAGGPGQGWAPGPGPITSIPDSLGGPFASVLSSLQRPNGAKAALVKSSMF

Binding result, binds:
B1, B2, B3, B4
